The target of this series is T1, CD5L (AIM) (Homo sapiens, UniProt O43866 20-347).
T1 sequence: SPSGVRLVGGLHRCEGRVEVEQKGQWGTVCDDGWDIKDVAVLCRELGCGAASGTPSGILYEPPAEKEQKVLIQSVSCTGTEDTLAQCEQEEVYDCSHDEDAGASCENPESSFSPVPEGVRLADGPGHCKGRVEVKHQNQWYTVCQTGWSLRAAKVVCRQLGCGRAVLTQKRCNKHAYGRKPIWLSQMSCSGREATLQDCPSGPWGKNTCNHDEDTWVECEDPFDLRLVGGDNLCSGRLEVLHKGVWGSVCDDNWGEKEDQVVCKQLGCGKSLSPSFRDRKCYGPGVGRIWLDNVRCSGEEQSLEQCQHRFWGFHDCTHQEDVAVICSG
Put plainly: MST; Cy5-S76.T 2 nM, CD5L titrated; MST: S11/S23 in binding buffer pH 7.4, 1 mM MgCl2, 0.1% Tween 20, 1 nM labelled protein; S76 in TBS; S76.T (Cy5, 2 nM) in 50 mM Tris-HCl pH 7.8, 150 mM NaCl, 0.05% Tween 20; temperature not stated. Conditions: protein: commercial; tags: His-tag; label: Cy5; hairpin.

The Kd is the equilibrium constant for the complex coming apart. A lower Kd goes with a tighter complex. As to AGGUUGCAGCGUUCGACAGGAGGCUCACAACAG (structured_RNA, 2'-fluoro pyrimidines) [S76.T], binding was characterised by a dissociation constant (Kd) of 10.1 ± 2.3 nM.

The values above are taken from article PMC10133315, “Overcoming adaptive resistance to anti-VEGF therapy by targeting CD5L”.
